This is an account of results in publication PMC12519261.

Where no end group is shown, it is not given here.

In the experiment the target is b1b2 domain of NRP-1 (recombinant). Put plainly: pull-down; Ni-NTA magnetic agarose beads coated with the b1b2 domain of NRP-1; fluorescent HLPNs incubated 1 h at room temperature with uPA added; 50 mM Tris pH 7.5, 1 M NaCl, 5 mM imidazole, 0.05% NP40; eluted with 400 mM imidazole, fluorescence of the eluate read.

Turning to AKRGAR-OH (also: FAM label, site not given here, conjugated to surface of HLPNs) [uPA-cleaved LinTT1 peptide with exposed CendR motif, on HLPNs], the fold increase of binding by uPA treatment (against no uPA) is 4 fold.
